Measured values from patent US20250027068.
Substitutions are numbered along the chain they refer to.

B1: PRT-533 (protein)
chain: MANQEIRYSSDSEWANKKVWVYGITPPEEGAWKYSTYYLPWKKEYGWYDCNKRNPTADGMMCWAATASNLLHWWIAQNKEYIDLYGDKYKGPDKINFNGEQMFDVKEYIDPLDKPQESDIFQCFIDKSFADLSTKHEAGYGDAGINWFIHGIIPSSPAHGPTPVKLDYPYNPAGYFKDVFPRGDGVVLLGNNGDFKELSKERFNETIKDALKNKKAIGLSIGPVNVRSSHVVTIWGAEFDENGDVSYIYMADNNDRWGVGCIRYQIVYEEGGTYTCYKTEIIPSDRPIPINRLVTLELGEEYWKQTNLEHHHHHH
B2: PRT-582 (protein)
chain: MANQEIRYSKAKPKVITSVWTKGVTPPTQFTKNEDVFHAPYLANQGWYDITKTFNGKDDLLCGAATAGNMLHWWFDQNKEQIERYLKKHPEKQKINFNGEQMFDVKEAIDTKDSQTNSKLFNYFKDKAFPYLSTKHLGVFPDHVIDMFINGYRLSLTNHGPTPVKEQNKDPRGGIFDDVFTRGDQSKLLTSRHDFKEKTLKEISDLIKQELKEGKALGLSHTYANVRINHVINLWGADFDAEGNLVAIYVTDSDSNASIGMKKYYVGVNSAGKVAISAKEIEDDNIGAQVLGLFTLSTGKDIWEKTNLEHHHHHH
B3: PRT-375 (protein)
chain: MSQTEDSESLQRLRDIEDFQAEKKKQNVVYTKWLDGVDVKDHDFRKIVDGNEAYYATPLLNGRGFYDINKDFNRDNDKCAAAVAANMFHYWLDRNRDNVDRFLRQNPEKHGIIELPDGQLKLSDFLNTYESDDGYRDKSKLFDFISENFNGPVWTDKLLDNYINGYAYNYKYGRLIEDSTKNTSKINFFKEVFNEKILTNNHSIRNQNELSVLLSEALYTGKAIGLSYGPAGTRHSLGHIISVWGADLDADGNVVAIYVTDSDDKKLTIGDERVGLKRYKISTDDEGRLRLTAYEETHNTGGQIRGLWTLDTGKQAWADYFDKTEQTGTDQAEQ
B4: PRT-553 (protein)
chain: MANQEIRYSEETPKTITSIWTKGVTPPTDFIKNEDVLHAPYVANQGWYDITKTFNGKDDLLCGAATAGNMLHWWFDQNKEEIENYLKKHPEKQKINFNGEQMFDVKEAIDTKDSQTDSKLFEYFKDKAFPYLSTKHLGVFPDHVIDMFINGYRLSLTNHGPTPVKRGTKDPRGGIFDAVFTRGDQTKLLTERHDFKEKTLNEISDLIKQELTEGKALGLSHTYANVRINHVINLWGADFNSEGNLEAIYVTDSDSNASIGMKKYYVGVNAAGKVAISAKEIEDDNIGAQVLGLFTLSTGKDIWEQTNLEHHHHHH
B5: PRT-559 (protein)
chain: B4 chain with N33T, K119A, R166D, K300Q
B6: PRT-586 (protein)
chain: MANQEIRYSEETPKTITSVWTKGVTPPTDFIYNEDVLHAPYIANQGWYDITKTFNGKDDLLCGAATAGNMLHWWFDQNKEQIERYLKKHPEKQKINFNGEQMFDVKEAIDTKDSQTDSKLFEYFKDKAFPYLSTKHLGVFPDHVIDMFINGYRLSLTNHGPTPVKRGTKDPRGGIFDAVFTRGDQSKLLTSRHDFKEKTLNEISDLIKQELTEGKALGLSHTYANVRINHVINLWGADFNAEGNLEAIYVTDSDSNASIGMKKYYVGVNSAGKVAISAKEIEGDNIGAQVLGLFTLSTGQDIWEQTNLEHHHHHH
B7: PRT-566 (protein)
chain: B6 chain with K14S, D29Q, Y32Q, R84N, K119A, E304N
B8: PRT-576 (protein)
chain: B6 chain with E10K, E11A, K14S, T28E, D29N, I42L, D117N, R166E, G167Q, E304Q
B9: PRT-595 (protein)
chain: B6 chain with K14S, Y32Q, R84N, K119A, T199N, E304N
B10: PRT-193 (protein)
chain: MANQEIRYSEVTPYHVTSVWTKGVTPPANFTQGEDVFHAPYVANQGWYDITKTFNGKDDLLCGAATAGNMLHWWFDQNKDQIKRYLEEHPEKQKINFNGEQMFDVKEAIDTKNHQLDSKLFEYFKEKAFPYLSTKHLGVFPDHVIDMFINGYRLSLTNHGPTPVKEGSKDPRGGIFDAVFTRGDQSKLLTSRHDFKEKNLKEISDLIKKELTEGKALGLSHTYANVRINHVINLWGADFDSNGNLKAIYVTDSDDKKLTIGDERIGMKKYFVGVNSAGKVAISAKEIKEDNIGAQVLGLFTLSTGQDSWNQTN
B11: PRT-253 (protein)
chain: MVTSVWTKGVTPPTNFTYGEDVLHAPYVANQGWYDITKTFNGKDDLLCGAATAGNMLHWWFDQNKEQIENYLKKHPEKQKINFNGEQMFDVKEAIDTKDSQLDSKLFEYFLEKAFPNLSTKHLGVFPDHVIDMFINGYRLSLLNHGPTPVKRGSKDPRGGIFDAVFTRGDQSKLLTNRHDFKEKTLKEISDLIKQELTEGKALGISHTYANVRINHVINLWGADFDAEGNLEAIYVTDSDSNKSIGMKKYFVGVNSDGKVAISAKEIEEDNIGAQVLGLFTLSTGQDIWNQTN
B12: PRT-269 (protein)
chain: B11 chain with N15D, T17I, V28K, N30G, F181L, E183N, Y235A, K243A, D257S
B13: PRT-261 (protein)
chain: MVTSVWTKGVTPPTNFTYGEDVLHAPYVANQGWYDITKLFNGKDNLLCGAATAGNMLHWWFDQNKEQIENYLKKHPEKQKINFNGEQLFDVKEAIDTKDSQLDSKLFDYFKEKAFPNLSTKHLGVFPDHVIDMFINGYRLSLLNHGPTPVKRGSKDKRGGIFDAVFTRGVQSKLLTNRHDFKEKTLKEISDLIKQELTEGKALGISHTYANGRINHVINLWGADFDAEGNLEAIYVTDSDTNPSIGMKKYFVGVNSSGKVAISAKEIEEDNIGAQVLGLFTLSTGQDIWNQTN
B14: PRT-245 (protein)
chain: MVTSVWTKGVTPPANFTQGEDVFHAPYVANQGWYDITKLFNGKDDLLCGAATAGNMLHWWFDQNKDQIKRYLEEHPEKQKINFNGEQMFDVKEAIDTKNHQLDSKLFEYFLEKAFPNLSTKHLGVFPDHVIDMFINGYRLSLLNHGPTPVKEGSKDPRGGIFDAVFTRGDQSKLLTSRHDFKEKNLKEISDLIKKELTEGKALGLSHTYANGRINHVINLWGADFDSNGNLKAIAVTDSDSNASIGMKKYFVGVNSSGKVAISAKEIKEDNIGAQVLGLFTLSTGQDSWNQTN
B15: PRT-526 (protein)
chain: MANQEIRYSEETPKTITSVWTKGVTPPTDFIKNEDVLHAPYIANQGWYDITKTFNGKDDLLCGAATAGNMLHWWFDQNKEEIERYLKKHPEKQKINFNGEQMFDVKEAIDTKDSQTDSALFEYFKDKAFPNLSTKHLGVMPDHVLDMFINGYYLSLGKHGPTPVKRGTKDPRGGIFDAVFTRGDQSKLLTSRHDFKEKTLKEISDLIKQELTEGKALALSHTYANVRINHVINLWGADFDSEGNLEAIYVTDSDSNASIGMKKYYVGVNSAGKVAISAKEIEGDNIGAQVLGLFTLSTGQDIWEQTNLEHHHHHH

Experiments:
[1] = target: pooled human IgG (human IgG1, 2, 3 and 4)
[2] = target: pooled human IgG (human IgG1,2,3 and 4)

| Protein | Enzyme Activity Endpoint Assay: Fab′2 [1] [ng/µL] | Enzyme Activity Endpoint Assay: Fc [1] [ng/µL] | Enzyme Activity Endpoint Assay: IgG [1] [ng/µL] | Enzyme Activity Endpoint Assay: scIgG [1] [ng/µL] | Enzyme Activity Endpoint Assay: Fab'2 [2] [ng/µL] | Enzyme Activity Endpoint Assay: Fc [2] [ng/µL] | Enzyme Activity Endpoint Assay: IgG [2] [ng/µL] | Enzyme Activity Endpoint Assay: scIgG [2] [ng/µL] |
| --- | --- | --- | --- | --- | --- | --- | --- | --- |
| B1 | 0 | 0 | 1140 | 0 |  |  |  |  |
| B2 | 28 | 183 | 329 | 754 |  |  |  |  |
| B3 | 170 | 115 | 0 | 180 |  |  |  |  |
| B4 | 79 | 229 | 111 | 764 |  |  |  |  |
| B5 | 657 | 158 | 0 | 0 |  |  |  |  |
| B6 | 478 | 322 | 77 | 458 |  |  |  |  |
| B7 | 621 | 366 | 0 | 0 |  |  |  |  |
| B8 | 903 | 365 | 0 | 0 |  |  |  |  |
| B9 | 1040 | 452 | 0 | 0 |  |  |  |  |
| B10 |  |  |  |  | 39 | 193 | 181 | 355 |
| B11 | 912 | 334 | 0 | 0 |  |  |  |  |
| B12 | 98 | 189 | 86 | 592 |  |  |  |  |
| B13 | 0 | 76 | 615 | 317 |  |  |  |  |
| B14 | 423 | 277 | 46 | 204 |  |  |  |  |
| B15 | 246 | 379 | 110 | 627 |  |  |  |  |
